# Assay results taken from patent US20220259306A1.
# Changes are numbered by the printed parent chain.
# B1: Mab033 (antibody, V domains shown)
# VH: EVQLQQSVAEFVRPGASVRLSCTASGFNIENTYIHWLKQRPEQGLEWIGRIDPANGDTQYDPKFQGKATLTAATSSNTAYLQLSGLTSEDTAIYYCTRYGDYLFYYSLKYWGQGTSVTVSS
# VL: DIVMTQAAPSVSVTPGESVSISCRSSKSLLHSNGNTYLYWFLQRPGQSPQLLIYRMSNLASGVPDRFSGSGSGTAFTLRISRVEAEDVGVYYCMQHLESPYTFGGGTKLEIK
# B2: Mab031 (antibody, V domains shown)
# VH: EVQLQQSVAELVRPGASVRLSCTGSGFNIQNTYIHWVKQRPEQGLEWIGRIDPANGDTKYAPKFQGKATITADTSSNTAYLQLSSLTSEDTAIYYCTRYGNYLYYYSLDYWGQGTSVTVSS
# VL: B1 VL with S12P, V88M, S99Y
# B3: Mab032 (antibody, V domains shown)
# VH: B2 VH with Q30E, I34M, V37L, N55D, K59Q, A72T, T97A, Y104F, L108M
# VL: B1 VL with S12P, G73A, V90I, S99Y
# B4: Mpb416 (antibody, V domains shown)
# VH: QVQLQQSVAELVRPGASVKLSCTASGFNIQNTYIHWVKQRPEQGLEWIGKIDPANGDTKYAPTFQGKATITADTSSNTAYLQLSSLTPEDTAIYYCARYRDYLFYYALGYWGQGTSVTVSS
# VL: B1 VL with A7S, S12P, S99Y
# B5: M15 (antibody, V domains shown)
# VH: B4 VH with G56A
# VL: B1 VL with A7S, S12P, G34A, S99Y
# B6: M15-5 (antibody, V domains shown)
# VH: QVQLVQSGAEVKKPGASVKVSCKASGFNIQNTYIHWVKQAPGQGLEWIGKIDPANADTKYAPTFQGRATITADTSTNTAYLELSSLRSEDTAVYYCARYRDYLFYYALGYWGQGTTVTVSS
# VL: DIVMTQSPLSLPVTPGEPASISCRSSKSLLHSNANTYLYWYLQKPGQSPQLLIYRMSNLASGVPDRFSGSGSGTDFTLKISRVEAEDVGVYYCMQHLEYPYTFGQGTKLEIK
# Biological target: human NKG2A/CD94 on the cell surface (CHOk1-hNKG2A/CD94 stable cell line) (human) (UniProt P26715)
# Assay: FACS on CHOK1-hNKG2A/CD94 cells, Alexa 488 secondary antibody
row,EC50 (read off the curve) [nM],Binder
1,0.8,B1
2,0.8,B2
3,0.8,B3
4,0.7,B4

# Biological target: human NKG2A/CD94 on the cell surface (CHOk1-hNKG2A/CD94 stable cell line) (human) (UniProt P26715)
# Assay: FACS blocking assay: HLA-E-PE binding to CHOk1-hNKG2A/CD94 cells in the presence of the antibody
row,IC50 (read off the curve) [nM],Binder
1,1,B1
2,1,B2
3,1,B3

# Biological target: human NKG2A/CD94 on the cell surface (CHOk1-hNKG2A/CD94 stable cell line) (human) (UniProt P26715)
# Assay: FACS on CHOK1-hNKG2A/CD94 cells
row,EC50 (read off the curve) [nM],Binder
1,0.8,B5
2,1,B6
